Source: PMC5605669 (2017)

B1: APOBEC3G, wild type [human] / itself (parent complex)
chain: MKPHFRNTVERMYRDTFSYNFYNRPILSRRNTVWLCYEVKTKGPSRPPLDAKIFRGQVYSELKYHPEMRFFHWFSKWRKLHRDQEYEVTWYISWSPCTKCTRDMATFLAEDPKVTLTIFVARLYYFWDPDYQEALRSLCQKRDGPRATMKIMNYDEFQHCWSKFVYSQRELFEPWNNLPKYYILLHIMLGEILRHSMDPPTFTFNFNNEPWVRGRHETYLCYEVERMHNDTWVLLNQRRGFLCNQAPHKHGFLEGRHAELCFLDVIPFWKLDLDQDYRVTCFTSWSPCFSCAQEMAKFISKNKHVSLCIFTARIYDDQGRCQEGLRTLAEAGAKISIMTYSEFKHCWDTFVDHQGCPFQPWDGLDEHSQDLSGRLRAILQNQEN

Variants of: B1
Assay: single-molecule ssDNA binding curves fit with two-step binding model (k2 from k slow); parent: 0.007; read off a plot

Question: How did the screen value turn out when chain 1 R313A, chain 1 D316A, chain 1 D317A, chain 1 Q318A was run?
Answer: ~0.0057 s⁻¹

Question: With chain 1 I314A, chain 1 Y315A as the variant, how does the screen value read?
Answer: ~0.0066 s⁻¹
